Reference: the domain aggregation screens of Martell et al. (2025)

Assay: soluble fraction after stress (log2 fold change); higher = more stays soluble; pooled small domains, quantitative proteomics
Settings: stress: 50 degC
How it was run: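 Quantitative proteomics served as the high-throughput read-out for pooled custom libraries of small protein domains. Each was stressed at 50°C. Aggregation propensity is expressed as the base-two log fold change in soluble protein after stress. A higher value means a larger share of the protein remains in solution.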

Sequence	soluble fraction (log2)
HMPKETFLNLDEEKRQAIINVLLKNFSEQHISQVKVSAIVSGIGMSRGAFYKYFEDLEDAYRFTISYFSA	-0.0102
HMKYYIYQGVGASGELTKIAEVTDQKTYTVTGLQAKTTYRFAVSSYNGLRESTKSNIVTVTT	-0.313
HMAEELELFHRLISVTGVGPKGALGFLSQLKPQEIILAILSDDVKTLSKAPGVGRKTAQRVILELKDKF	-1.14
HMQYDALVLNLLQEKNLTSESLKDAQRAFAKSHNLSTLPSKSQILQAYFQLLEQGKIEKNPDFELLL	-0.108
HMNSSTYIVTFKVDGEEDIVETYQWGDRIIVPEVEAKDDYVFIGWDAQIPEFMPERNLEFTAI	-1.14
HMEKAKVPSVIGMTEANAKRTIRDAGFKVGRVTRVESEAYDKGKVIEQQYEAGSELEKKKPISIVVSKGKK	-0.162
HMEYPNEIARIFNQIPELNVSAVARTLGINKSLLSSYIYGMKKPSPERTEEIKSAIRKIGQNMLAV	-0.421
HMRSFRIGGLVEQGSIARDGQSLTVRFAVTDLAHKIPVTYTGLLPDLFKEGKGVVAEGKLGPDGVFHASQV	-0.0153
HMGENTIFSGVLGEGRLDSALAHALPQFSRARIQGLIAEDAVLIAGKATNDAASKKFAGQSFELSVPAPRP	0.105
HMSEEQLKAFLEKVQGDTSLQEKLKAAADANAVVEIAKEAGFSISADDLKNAQSELSEEELE	-0.0697
HMTIYLSENIKRLRLEKELTQETLSEFLGVTSQSVSNWERGESYPDITMLPEIADFFKVSVDELLGVNRAE	-0.889
HMKDNIRSILEDIPNIGPGRRRALLKHFGSIEAIRRASLEDLIKVDGMNRNAALSIMEYFGM	-0.159
HMNKNQIGTNAGIVWKLLSDNVHWEYDKLKHASGLSDRDLNAAIGWLAREDKIDFDIDEQHDRLFL	-0.395
HMVGGIAIGQFNVPRGSVKVTAGGRLLQEGLDYTVNYQAGRVQILDESLKNSNVPIEISTESNS	0.229
HMTTTAGTAVVQTGNSGKLNLREQAYSNAGILGRYSNGTIVTVLQKGSAWSYVEVQGQKGYMMSKFLRFT	0.293
HMYYIITNGKYWVIENPIRPGEYMESTKSSNAKQFTFKQAKNLLNARSKKLGWIRNGYSMVGED	-2.22
HMSTNYVQVLRAALNGVSGRKLAQQYRVSRDTVAILLRQAKIQGWQRAEDLENITEEDLVALLSG	-0.373
HMVEPLIVRNFSINYADIDKLETKIKDYISNSDKSGVNRGRVTSDTRTNMLIVTETASKLAQVEQLLKALD	-0.181
HMSVDIWTGAQTGNIEAVKQHLADGVDVNSKSDIGRTALDVAIAFKQPLITDLLRKHGGKTRDELKAAE	0.545

Sequence	soluble fraction (log2)
HMDLPSSETLKVKLNLAKAYVTIEDFGAARRALDEVLSVSSLVDPDLTIQAKSLLAEIDQRS	-0.0514
HMDNMFMPPVNGWDVRQALQKLQNEMGLQVKMEYSPSETITEGYVISYTPIDGMKVEKGDEVTLVISTGPE	0.225
HMSMQIILLDKVVNLGGLGDVVKVKDGYARNYLIPQGKAKRANTANLAEFEARRVELERLAAEQLAQAQA	0.0814
HMTKQDYLTALQQELNKNAVADAEDIVSEYEQHFQFKLADGFTEEEIAAKLGAPAQIALQFAG	0.167
HMVVDEQRIQTLVSAAEQNSSDPVPRVTLGNLYFDAEQFEEAVKWYEQALALDPRNVNVSTDLGVGYYY	-0.00895
HMTANTLDLTYSQFLENVKNGSVNDVTIRGNNVSGNFSDGRKFKTYAVNDPTLVEKLTKMGVNISAAPL	0.267
HMELSPAELGERLKVARETANVTQDAGAKAAGIARTTLVAIEKGQRSARIDELQTLSRRYGVSVNSLLRR	-0.135
HMKGIVFTEFLDLVEERFGLEMVDAIISQSKLESKGVYTSIGTYSFSELLQLLQNLKIQTGISIDNLLLI	-0.88
HMEIHQVEFGGKVISFVLERKPVKNVNLHIKPDMTVMVSANEKVPLDFILGFVKQKAAWILKNIQFFEDV	-1.25
HMGVTDSSYNVLRRQILEMLSVQQRTPADLARLIEADKEEIAAVIRFLLDKGEIQMEDGMLQTK	0.0683
HMHPTEKNLTSLLADGSFYMNQNKLETAYDTFTKTIELDPSWAEAWNKRATVLYLMGKYELSQADIDQV	-0.0645
HMKMTIEDLITQAKESNAAENYYEAFQLYSKAIDVLPNDPDLYSARGVVLFHLDRKEDSLIDMNKSVD	-0.2
HMKTEVNITPGIIDWIERYVQTDKISSSMTEDFQHWKSGTKKPTFNQVEAFSKAINVPLGYFFLKTPPAE	-0.302
HMDPPVDLTPREQQVLSRIALGMSDKAIAAELGVSHQTVRNHVARIYAKIKVHSRSQAIVWAREKGIP	-0.185
HMVMATPHNTAKAGDIAKTVIMPGDPLRAKYIADNYLDNAVQFNVVRNIYGYTGVYRGTDISVMASGM	0.128
HMIINLGELLKMLEVNKYQDAMDALDSLIEEGGSLEKIESLHEIRQHTHAMNFREAERLLSILIESEGA	-0.746
HMKRLPAQMGGGDGVLRVPGLNNFVYVTIADKTLPAFNNRVPPKKGLRIWVGYSPEEPNLFQVLSTRTD	-0.576
HMKNIINLVIDGELHGKRIDAVIAQKNDSLSRTRIKNLVINGNLSINDEIVSDPSKKIYKDDKVSLTIPLP	-0.058
HMEHIEVDTSHIAVGSKVKHKAFGLGEITDKGNTYVFVKFDGQAIPKKFQFPGAFTQGFLTK	0.144
